Data taken from patent US20040161809.

Target: Staphylococcus aureus thioredoxin (Trx) (UniProt P0A0K6)
Sequence (P0A0K6 whole entry): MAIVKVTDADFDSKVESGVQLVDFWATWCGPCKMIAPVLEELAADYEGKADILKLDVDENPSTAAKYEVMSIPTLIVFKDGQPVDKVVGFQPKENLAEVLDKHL

Staphylococcus aureus thioredoxin reductase (TrxB)
A412 (DTNB titration of free SH groups formed in insulin), complete reaction: NADPH + Trx + TrxB + insulin: 0.816 A412
A412 (DTNB titration of free SH groups formed in insulin), control with NADPH omitted: Trx + TrxB + insulin: 0.15 A412
A412 (DTNB titration of free SH groups formed in insulin), control with Trx omitted: NADPH + TrxB + insulin: 0.493 A412
